Measurements reported in paper PMC3176717 (Biochemistry, 2011).
Positions count from the first letter of the chain named. Names may count otherwise. Where two headings read alike, the source gives them in different places.

B1: wild type human Prx I (peroxiredoxin I), reduced, non-glutathionylated (enzyme, UniProt Q06830 1-199, looked up)
chain: MSSGNAKIGHPAPNFKATAVMPDGQFKDISLSDYKGKYVVFFFYPLDFTFVCPTEIIAFSDRAEEFKKLNCQVIGASVDSHFCHLAWVNTPKKQGGLGPMNIPLVSDPKRTIAQDYGVLKADEGISFRGLFIIDDKGILRQITVNDLPVGRSVDETLRLVQAFQFTDKHGEVCPAGWKPGSDTIKPDVQKSKEYFSKQK
B2: human Prx I (C52S/C173S) double mutant, reduced (enzyme, UniProt Q06830 1-199, looked up)
chain: B1 chain with C52S, C173S
B3: glutathionylated Prx I (C83S) mutant (enzyme, human, UniProt Q06830 1-199, looked up)
chain: B1 chain with C83S
modifications: glutathionylated by disulfide exchange with GSSG; sites not stated for this mutant

Key:
AUC [1] = biological target: the molecule itself; test: AUC
AUC [2] = biological target: the molecule itself; test: AUC; remark: listed apart in the source

| Protein | stoichiometry N (AUC [1]) | stoichiometry N (AUC [2]) |
| --- | --- | --- |
| B1 | 10 | – |
| B2 | 10 | – |
| B3 | – | 2 |
